Data from the Human Domainome abundance scans (Beltran et al. 2025).
± gives the uncertainty stated by the source.

B1: Dynamin-binding protein, residues 146 to 206; numbered along this chain, Q6XZF7 (parent)
chain: SMGQARALMGLSAQLDEELDFREGDVITIIGVPEPGWFEGELEGRRGIFPEGFVELLGPLR

Variants of: B1
Assay: abundance fitness (aPCA) (normalised: wild type 0, dead -1); higher = more abundant; growth selection in yeast, the domain comes from the species named
Settings: Homo sapiens

Abundance fitness: each site, then its substitutions
E34: S -0.129 ± 0.12 | R 0.025 ± 0.12 | Q -0.364 ± 0.21
G44: H -0.665 ± 0.1 | V -0.884 ± 0.2 | Q -0.683 ± 0.32
R46: Y -0.698 ± 0.36 | C -0.303 ± 0.059 | Q -0.571 ± 0.3
P35: A -0.116 ± 0.062 | S -0.292 ± 0.068 | I -0.642 ± 0.13 | W -0.926 ± 0.34 | G -0.743 ± 0.11 | V -0.202 ± 0.066 | N -0.471 ± 0.11 | M -0.473 ± 0.16 | F -0.717 ± 0.18 | Q -0.203 ± 0.13 | R -0.309 ± 0.077 | D -0.062 ± 0.098 | E -0.018 ± 0.13 | T -0.064 ± 0.088 | C -0.363 ± 0.09
V54: N -0.674 ± 0.45 | K -0.671 ± 0.25 | I -0.947 ± 0.24 | G -0.708 ± 0.07 | E -0.81 ± 0.38
E41: A -0.32 ± 0.059 | F -0.6 ± 0.29 | S -0.806 ± 0.25 | I -0.073 ± 0.054 | W -0.773 ± 0.13 | Q -0.267 ± 0.11 | M -0.211 ± 0.093 | N -0.608 ± 0.071 | V -0.148 ± 0.039
G47: L -0.696 ± 0.11 | K -0.839 ± 0.45 | D -0.804 ± 0.27 | Q -0.861 ± 0.18 | I -1.06 ± 0.35 | E -0.962 ± 0.37 | V -0.719 ± 0.069
L60: P -0.368 ± 0.19 | M -0.062 ± 0.12 | A -0.387 ± 0.26 | Y -0.862 ± 0.39 | G -0.176 ± 0.11
R61: C -0.234 ± 0.11 | P 0.123 ± 0.22 | L 0.336 ± 0.35 | V 0.019 ± 0.083 | S -0.017 ± 0.068 | I -0.135 ± 0.13 | F -0.363 ± 0.12 | G -0.123 ± 0.096 | Y -0.148 ± 0.098 | H -0.153 ± 0.08 | D -0.053 ± 0.084 | T -0.046 ± 0.072 | N -0.054 ± 0.077 | K 0.47 ± 0.3 | E -0.018 ± 0.15
L56: R -0.399 ± 0.12 | V -0.152 ± 0.087 | I -0.42 ± 0.13
G58: E 0.082 ± 0.15 | H -0.23 ± 0.085 | Q -0.013 ± 0.1 | T -0.079 ± 0.069
R45: W -0.958 ± 0.25 | G -0.961 ± 0.27
I48: G -1.01 ± 0.095 | R 0.012 ± 0.11 | V -0.007 ± 0.041 | A -0.777 ± 0.29 | P -0.651 ± 0.12
G36: D -0.824 ± 0.23 | K -0.347 ± 0.12 | L -0.831 ± 0.1 | M -0.584 ± 0.17 | R -0.709 ± 0.077 | Q -0.797 ± 0.22 | E -0.958 ± 0.2
E43: D 0.089 ± 0.06 | W -0.747 ± 0.15 | M 0.06 ± 0.077 | L -0.527 ± 0.19
F38: P -0.994 ± 0.16 | H -1.08 ± 0.16 | Q -1.12 ± 0.29 | W -0.667 ± 0.11 | K -0.503 ± 0.098
P50: C -0.93 ± 0.15 | R -0.068 ± 0.061 | K -0.212 ± 0.17 | S -0.674 ± 0.068 | Q -0.314 ± 0.13 | N -0.371 ± 0.069 | L -0.655 ± 0.089 | V -1.02 ± 0.12 | F -0.669 ± 0.09 | G -0.621 ± 0.072 | Y -0.794 ± 0.11 | H -0.333 ± 0.067 | M -0.38 ± 0.11 | I -0.691 ± 0.082 | A -0.736 ± 0.11 | E -0.509 ± 0.19 | D -0.797 ± 0.13
L57: N -0.375 ± 0.052 | A -0.57 ± 0.068 | T -0.437 ± 0.055 | W -1.03 ± 0.2 | V -0.24 ± 0.044 | Y -0.578 ± 0.061 | H -0.629 ± 0.077 | E -0.695 ± 0.27 | P -0.655 ± 0.085 | M -0.251 ± 0.081 | R -0.43 ± 0.053 | D -0.429 ± 0.063 | K -0.585 ± 0.11 | Q -0.258 ± 0.16 | I -0.176 ± 0.045
F49: W -1.1 ± 0.24 | D -0.74 ± 0.097 | K -0.655 ± 0.21
P59: M -0.386 ± 0.34 | K -0.889 ± 0.35 | T -0.685 ± 0.18
L42: K -0.316 ± 0.14 | T -0.769 ± 0.12 | D -0.975 ± 0.15 | P -0.5 ± 0.1
E51: P -0.792 ± 0.33 | S -0.053 ± 0.065 | F -0.621 ± 0.32 | N -0.66 ± 0.15 | Q -0.074 ± 0.18
G40: Q -0.974 ± 0.26 | Y -0.604 ± 0.07 | L -0.762 ± 0.078 | P -0.502 ± 0.095 | E -0.685 ± 0.15 | K -0.906 ± 0.16 | F -0.901 ± 0.087
W37: S -0.62 ± 0.16 | H -0.326 ± 0.074 | G -0.652 ± 0.053 | M -0.019 ± 0.075
E39: R -0.141 ± 0.051 | S -0.339 ± 0.044
G52: I 0.04 ± 0.16 | R 0.117 ± 0.18 | L -0.29 ± 0.31 | Y -0.064 ± 0.3 | M 0.046 ± 0.23 | A 0.111 ± 0.11 | H 0.404 ± 0.22 | W -0.053 ± 0.21 | E -0.189 ± 0.25 | T -0.083 ± 0.15
E55: K -0.253 ± 0.17 | N -0.939 ± 0.28
